Experimental findings from the nanobody polyreactivity screen of Harvey et al. (2022) are described below.

This data set in a line: yeast display, Sf9 membrane polyspecificity reagent, FACS + sequencing; frameworks hold sequencing errors. In outline:
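After 36–48 hours of galactose induction, yeast (Saccharomyces cerevisiae BJ5465) displaying a synthetic nanobody library were stained at 4 °C for 1 hour with 10% biotinylated, detergent-solubilized Sf9 membrane reagent. Streptavidin microbeads enriched the stained cells before FACS sorting into low and high (top ~1%) gates on anti-HA and streptavidin fluorescence. Each clone's polyreactivity label reflects its gate of origin.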
In the case of “QVQLVESGGGLVQAGGSLRLSCAASGSTFWKYAMGWYRQAPGKERELVARISRNGGSTYYADSVKGRFTISRDNAKNTVYLQMNSLKPEDTAVYYCATAYVHYVYKYDYWGQGTQVTVSS”, the “polyreactivity (PSR sort gate)” value is listed as “high polyreactivity”.

On to “QVQLVESGGGLVQAGGSLRLSCAASGSTFWLNAMGWYRQAPGKEREFVAAITWSSGSTYYADSVKGRFTISRDNAKNTVYLQMNSLKPEDTAVYYCAADGRYVRIRGDYWGQGTQVTVSS”, for which the “polyreactivity (PSR sort gate)” value was “low polyreactivity”.

Turning to “QVQLVESGGGLVQAGGSLRLSCAASGSTFWLYAMGWYREAPGKERELVATISERGGSTYYADSVKGRFTISRDYAKNTVYFQMNSLKPEDTAVYYCAADQFHYPRGRRYDYWGQGTQVTVSS”, the “polyreactivity (PSR sort gate)” value is reported as “low polyreactivity”.

As for “QVQLVESGGGLVQAGGSLRLSCAASGSTFWLYAMGWYRQAPGKEREFVATISSSTTYYADSVKGRFTISRDNAKNTVYFQMNSLKPQDTAVYYCNAADYYSDVWSSVDYEGDYWGQGTQVTVSS”, the “polyreactivity (PSR sort gate)” value is listed as “low polyreactivity”.

On to “QVQLVESGGGLVQAGGSLRLSCAASGSTFWLYAMGWYRQAPGKERELVATISERGGSTYYADSVKGRFTISRDNAKNTVYLQMNSLKPEDTAVYYCAADQFHYPRGRRYDYWGQGTQVTVSS”, for which the “polyreactivity (PSR sort gate)” value was “low polyreactivity”.

For “QVQLVESGGGLVQAGGSLRLSCAASGSTFWNYAMGWYRQAPGKERELVASIDSSDGRTYYADSVKGRYTISRDNAKTTVYVQMNSLKPEDTAAYYCAKDAYAVELRPYSKLSSRAVGYWGQGTQVTVSS”, the “polyreactivity (PSR sort gate)” value was “low polyreactivity”.

In the case of “QVQLVESGGGLVQAGGSLRLSCAASGSTFWPNAMGWYRQAPGKERELVAGITTSSGSTFYAHSVKGRFTISRDNAKNTVYLQMNSLKPEDTAVYDCNARVRRRRYKYDYWGQGTQVTVSS”, the “polyreactivity (PSR sort gate)” value is “high polyreactivity”.

Consider “QVQLVESGGGLVQAGGSLRLSCAASGSTFWPYALGWYRQAPVKERELVAAITNSGGSTYYADSVKGRFTISRDNAKNTVYLQMNSLKPEDTAVYYCAVRGVIYSYTPVNSYVFWGQGTQVTVSS”, for which the “polyreactivity (PSR sort gate)” value is “low polyreactivity”.

In the case of “QVQLVESGGGLVQAGGSLRLSCAASGSTFWPYAMGWYRQAPGKERELVAAISNGGGTKYADSVKGRFTISRDNAKNTVYLQMNSLKPEDTAVYYCAKTLWTGRAWYDYWGQGTQVTVSS”, the “polyreactivity (PSR sort gate)” value is “high polyreactivity”.

On to “QVQLVESGGGLVQAGGSLRLSCAASGSTFWPYAMGWYRQAPGKERELVAAITSSDVNTNYADSVKGRFTISRDNAKNTVYLQMNSLKPEDTAVYYCAADQYQYDPTYGYDYWGQGTQVTVSS”, for which the “polyreactivity (PSR sort gate)” value is listed as “low polyreactivity”.

Consider “QVQLVESGGGLVQAGGSLRLSCAASGSTFWSNPMGWYRQAPGKERELVAAISISDGNTYYADSVKGRFTISRDNAKNTVYLQMNSLKPDDTAVYYCATVGSEDGDPGFDYWGQGTQVTVSS”, for which the “polyreactivity (PSR sort gate)” value was “low polyreactivity”.

As to “QVQLVESGGGLVQAGGSLRLSCAASGSTFWSNVMGWYRQAPGKESELVSAISYGGVTTSYADSVKGRFTISRDNAKNTVYLQKNSLKPEDTAVYYCATDYVGYYFYVSDYWGQGTQVTVSS”, the “polyreactivity (PSR sort gate)” value is on record as “low polyreactivity”.

“QVQLVESGGGLVQAGGSLRLSCAASGSTFWSYAMGWYRQAPGKEREFVAAISRSGDSTYYADSVKGRFTISRDNAKNTVYLQMNSLNPEDTAVYYCNAKLVRRSYGSYYYTYDYWGQGSQVTVSS”: the “polyreactivity (PSR sort gate)” value is given as “high polyreactivity”.

Turning to “QVQLVESGGGLVQAGGSLRLSCAASGSTFWSYTMGWYRQAPGKERELVAAISRSGGSTYYADSVKGRFTISRDNAKNTVYLQMNSLKPEDTAVYYCAADDRYGSRYYYWGQGTQVTVSS”, the “polyreactivity (PSR sort gate)” value is given as “high polyreactivity”.

Regarding “QVQLVESGGGLVQAGGSLRLSCAASGSTFWSYTMGWYRQAPWKERDLVARNTGRGGSTYYADSVKGRFTISRDNEKNTVYLLMNSLKTEDTAVYYCAAGGGRYGFYRFDYWRQGTQVTVSS”, the “polyreactivity (PSR sort gate)” value is on record as “low polyreactivity”.

With “QVQLVESGGGLVQAGGSLRLSCAASGSTFWTNAMGWYRQAPGKERELVATITYSTGTYADSVKGRFTISRDNAKNTVYLQMNSLKPEDTAVYYCAADFWYRTVYGYFGYVYWGQGTQVTVSS”, the “polyreactivity (PSR sort gate)” value is on record as “low polyreactivity”.

For “QVQLVESGGGLVQAGGSLRLSCAASGSTFWVNVMGWYRQAPGKERELVAAITTGSSPYYADSVKGRFTISRDNAKNTVYLQMNSLKPEDTAVYYCNVFQGTRYGYWGQGTQVTVSS”, the “polyreactivity (PSR sort gate)” value is recorded as “low polyreactivity”.

Consider “QVQLVESGGGLVQAGGSLRLSCAASGSTFWWNTMGWYRQAPGKESELVADIRTSGGGTYYADSVKGRFTISRDNAKNTVYLQMNSLKPEDTAVYYCNADPKWEMGSWGQGTQVTVSS”, for which the “polyreactivity (PSR sort gate)” value is “low polyreactivity”.

On to “QVQLVESGGGLVQAGGSLRLSCAASGSTFWYNAMGWYRQAPGKERELVAAISRSGATTYYADSVKGRFTISRDNAKNTVYLQMNSLKPEDTAVYYCNAVISPSSYVRNSDYWGQGTQVTVSS”, for which the “polyreactivity (PSR sort gate)” value is recorded as “low polyreactivity”.

Consider “QVQLVESGGGLVQAGGSLRLSCAASGSTFWYNAMGWYRQAPGTEREFVAAISSRGGNTFYADSVKGRFTISRDNAKNTVYLQMNSLKPEDTAVYYCDARFNRPYDYWGQGTQVTVSS”, for which the “polyreactivity (PSR sort gate)” value is on record as “low polyreactivity”.

With “QVQLVESGGGLVQAGGSLRLSCAASGSTFWYNDMGWYRQAPGKETELVASISWSGGDTYYADSVKGRFTISRDNAKNTVYLQMNSLKPEDTAVYYCAKGNNWISRLMDYWGQGTQVTVSS”, the “polyreactivity (PSR sort gate)” value is “low polyreactivity”.

Regarding “QVQLVESGGGLVQAGGSLRLSCAASGSTFWYYAMGWYRQAPGKERELVAAISRGGNTYYADSVKGRFTISRDNAKNTVYLQMNSLKPEDTAVYYCAARVHYWYPSTGHHYWGQGTQVTVSS”, the “polyreactivity (PSR sort gate)” value is “high polyreactivity”.

As for “QVQLVESGGGLVQAGGSLRLSCAASGSTFWYYAMGWYRQAPGKERELVAAITSGDSTYYADSVKGRFTISRDNAKNTVYLQMNSLKPEDTAVYYCAADLPWEDGYYFYSGYTEYDYWGQGTQVTVSS”, the “polyreactivity (PSR sort gate)” value is “low polyreactivity”.

In the case of “QVQLVESGGGLVQAGGSLRLSCAASGSTFWYYAMGWYRQAPGKERELVADITYSGVSTYYADSVKGRFTISRDNAKNTVYLQMNSLKPEDTAVYYCNADWGSVNGYSGYYYWGQGTQVTVSS”, the “polyreactivity (PSR sort gate)” value was “low polyreactivity”.

“QVQLVESGGGLVQAGGSLRLSCAASGSTFWYYTMGWYRQAPGKERELVAAISKSGTNTYYADSVKGRFTISRDQAKNTVYLQMNSLKPEDTAVDYCNALTKTGTPPDYDYWGQGTQVTVSS”: the “polyreactivity (PSR sort gate)” value is recorded as “high polyreactivity”.

Consider “QVQLVESGGGLVQAGGSLRLSCAASGSTFWYYVMGWYRQAPGKERELVAAISTRGDSTYYADSVKGRFTISRDNAKNTVYLQMNSLKPEETAVYYCAKYRQSSGRVRFDYWGQGTQVTVSS”, for which the “polyreactivity (PSR sort gate)” value was “low polyreactivity”.

Consider “QVQLVESGGGLVQAGGSLRLSCAASGSTFYANAMGWYIQPPGKERELVAAISRSGGRTYYADSVKGRFTISRDTAKKTVYLQMNSLKTEDNSVYYCAKAYHHSEFDYWGQGTQVTVSS”, for which the “polyreactivity (PSR sort gate)” value was “high polyreactivity”.

Regarding “QVQLVESGGGLVQAGGSLRLSCAASGSTFYANAMGWYRQAPGKERELVATINRRGNKYYADSVKGRFTISRDHAKNTVYLQMNSLKPEDTAVYYCAADAWVGWHDEYDYWGQGTQVTVSS”, the “polyreactivity (PSR sort gate)” value is given as “low polyreactivity”.

In the case of “QVQLVESGGGLVQAGGSLRLSCAASGSTFYANLMGWYRQAPGKEWEFVAAIDGSGGRTYYADSVKGRFTISRDNAKNTVYLQMNSLKPEVTAVYYCAKKRIVPVIQFGRDYNYWGQGKQVTVSS”, the “polyreactivity (PSR sort gate)” value is given as “high polyreactivity”.

For the sequence “QVQLVESGGGLVQAGGSLRLSCAASGSTFYANVMGWYRQAPGKERELVAAIRWSGSSTYYADSVKGRFTISRDNAKNTVYLQMNSLKPEDTAVYYCNARYDFSYDYWGQGTQVTVSS”, the “polyreactivity (PSR sort gate)” value was “low polyreactivity”.

On to “QVQLVESGGGLVQAGGSLRLSCAASGSTFYASVMGWYRQAPGKERELVAGITWYGGSTYYADSVKGRFTISRDNAKNTVYLQMNSLKPEDTAVYYCAADYYNTYGYDYCGQGTQVTVSS”, for which the “polyreactivity (PSR sort gate)” value is reported as “low polyreactivity”.

For “QVQLVESGGGLVQAGGSLRLSCAASGSTFYAYAMGWYRQAPGKERELVAAISGSGGRTYYADSVKGRFTISRDNAKNTVYLQMNSLKPEDTAVYYCAASLTSRLPDPPRYYWGQGTQVTVSS”, the “polyreactivity (PSR sort gate)” value is “high polyreactivity”.

As to “QVQLVESGGGLVQAGGSLRLSCAASGSTFYAYAMGWYRQAPGKERELVAAISSDGSTNYADSVKGRFTISRDNAKNTVYLQMNSLKPEDTAVYYCAADDNGAWVRMDYWGQGTQVTVSS”, the “polyreactivity (PSR sort gate)” value is listed as “low polyreactivity”.

Regarding “QVQLVESGGGLVQAGGSLRLSCAASGSTFYAYAMGWYRQAPGKERELVAGISKRVGRTYYADSVKGRFTISRDNAKNTVYLQMNSLKPEDTAVYYCNADVYAYPATWLDYWGQGTQVTVSS”, the “polyreactivity (PSR sort gate)” value is “high polyreactivity”.

In the case of “QVQLVESGGGLVQAGGSLRLSCAASGSTFYAYTMGWYRQAPGKEREFVAAISKSGGSTYYADSVKGRFTISRDNAKNTVYIQMNSLKPEDTAVYYCAARVYYRYDWGQGTQVTVSS”, the “polyreactivity (PSR sort gate)” value is given as “high polyreactivity”.

On to “QVQLVESGGGLVQAGGSLRLSCAASGSTFYDNTMGSYRQAPGKERELVAAITGTGGNTYYADSVKGRFTISRDNAKNTVYLQMNSLKPEDTAVYYCNRVPVYYYRYGYWGQGTQVTVSS”, for which the “polyreactivity (PSR sort gate)” value is “low polyreactivity”.

As for “QVQLVESGGGLVQAGGSLRLSCAASGSTFYDYAMGWYRQAPGKERELVAAISQSGGSTYYADSVKGRFTISRDNAKNTVYLQMNSLKPEDTAVYYCAADSGYSLYDYWGQCTQVTVSS”, the “polyreactivity (PSR sort gate)” value was “low polyreactivity”.

“QVQLVESGGGLVQAGGSLRLSCAASGSTFYDYAMGWYRQAPGTEREFVAAISGSAGSTYYADSVKGRFTISRDNAKNTVYLQMNSLKPEDTAVYYCATDYGWEDYNYWGQGTQVTVSS”: the “polyreactivity (PSR sort gate)” value is “low polyreactivity”.

On to “QVQLVESGGGLVQAGGSLRLSCAASGSTFYDYAMGWYRQAPWKERELVAAITSGGSTYADSVKGRFTISRYNAKNTVYLQMNSLKPEDTAVYYCNKDFVVEYWWHHVYVYYYLGDYWGQGTQVTVSS”, for which the “polyreactivity (PSR sort gate)” value was “low polyreactivity”.

Consider “QVQLVESGGGLVQAGGSLRLSCAASGSTFYENTMGWYRQATGKERELVAAISFRGGSTYYADSVKGRFTISRDNAKNTVYLQMNSLKPEDTAVYYCNADDSPVPSIRFDYWGQGTQVTVSS”, for which the “polyreactivity (PSR sort gate)” value is on record as “low polyreactivity”.

Take “QVQLVESGGGLVQAGGSLRLSCAASGSTFYEYAMGWYRQAPGKERELVATINWS”: the “polyreactivity (PSR sort gate)” value is given as “low polyreactivity”.
